± gives the uncertainty stated by the source.
B1: Tumor protein p73, residues 487 to 549; numbered along this chain, O15350 (parent)
chain: YHADPSLVSFLTGLGCPNCIEYFTSQGLQSIYHLQNLTIEDLGALKIPEQYRMTIWRGLQDLK

Variants of: B1
Assay: abundance fitness (aPCA) (normalised: wild type 0, dead -1); higher = more abundant; growth selection in yeast, the domain comes from the species named
Conditions: Homo sapiens

YHADPSLVSFLTGLGCPNCIEYFTSQGLQSIYHLQNLTIEDLGALKIPEDYRMTIWRGLQDLK [Q50D] and YHADPSLVSFLTGLGCPNCIEYFTSQGLQSIYHLQNLTIEDLGALKIPEEYRMTIWRGLQDLK [Q50E] are within error of each other in abundance fitness: -0.106 ± 0.2 for the first, 0.047 ± 0.035 for the second.

First: YHADPSLVSFLTGLGCPNCIEYFTSQGLQSIYHLQNLTIEDLGALKIPEFYRMTIWRGLQDLK [Q50F]
Second: YHADPSLVSFLTGLGCPNCIEYFTSQGLQSIYHLQNLTIEDLGALKIPEGYRMTIWRGLQDLK [Q50G]
The abundance fitness of the first is lower: -0.23 ± 0.087 for the first, 0.111 ± 0.04 for the second.

Compared with YHADPSLVSFLTGLGCPNCIEYFTSQGLQSIYHLQNLTIEDLGALKIPEHYRMTIWRGLQDLK [Q50H], YHADPSLVSFLTGLGCPNCIEYFTSQGLQSIYHLQNLTIEDLGALKIPEIYRMTIWRGLQDLK [Q50I] is lower in abundance fitness: 0.039 ± 0.065 for the first, -0.192 ± 0.15 for the second.

Compared with YHADPSLVSFLTGLGCPNCIEYFTSQGLQSIYHLQNLTIEDLGALKIPEKYRMTIWRGLQDLK [Q50K], YHADPSLVSFLTGLGCPNCIEYFTSQGLQSIYHLQNLTIEDLGALKIPELYRMTIWRGLQDLK [Q50L] is lower in abundance fitness: 0.06 ± 0.052 for the first, -0.036 ± 0.037 for the second.

YHADPSLVSFLTGLGCPNCIEYFTSQGLQSIYHLQNLTIEDLGALKIPEMYRMTIWRGLQDLK [Q50M] and YHADPSLVSFLTGLGCPNCIEYFTSQGLQSIYHLQNLTIEDLGALKIPENYRMTIWRGLQDLK [Q50N] are within error of each other in abundance fitness: 0.058 ± 0.052 for the first, 0.009 ± 0.07 for the second.

Compared with YHADPSLVSFLTGLGCPNCIEYFTSQGLQSIYHLQNLTIEDLGALKIPEPYRMTIWRGLQDLK [Q50P], YHADPSLVSFLTGLGCPNCIEYFTSQGLQSIYHLQNLTIEDLGALKIPERYRMTIWRGLQDLK [Q50R] is higher in abundance fitness: -0.132 ± 0.054 for the first, 0.051 ± 0.034 for the second.

YHADPSLVSFLTGLGCPNCIEYFTSQGLQSIYHLQNLTIEDLGALKIPESYRMTIWRGLQDLK [Q50S] and YHADPSLVSFLTGLGCPNCIEYFTSQGLQSIYHLQNLTIEDLGALKIPETYRMTIWRGLQDLK [Q50T] are within error of each other in abundance fitness: 0.045 ± 0.034 for the first, -0.034 ± 0.05 for the second.

Compared with YHADPSLVSFLTGLGCPNCIEYFTSQGLQSIYHLQNLTIEDLGALKIPEVYRMTIWRGLQDLK [Q50V], YHADPSLVSFLTGLGCPNCIEYFTSQGLQSIYHLQNLTIEDLGALKIPEWYRMTIWRGLQDLK [Q50W] is lower in abundance fitness: 0.038 ± 0.035 for the first, -0.135 ± 0.03 for the second.

First: YHADPSLVSFLTGLGCPNCIEYFTSQGLQSIYHLQNLTIEDLGALKIPEYYRMTIWRGLQDLK [Q50Y]
Second: YHADPSLVSFLTGLGCPNCIEYFTSQGLQSIYHLQNLTIEDLGALKIPEQARMTIWRGLQDLK [Y51A]
The abundance fitness of the first is lower: -0.297 ± 0.086 for the first, -0.005 ± 0.076 for the second.

YHADPSLVSFLTGLGCPNCIEYFTSQGLQSIYHLQNLTIEDLGALKIPEQCRMTIWRGLQDLK [Y51C] and YHADPSLVSFLTGLGCPNCIEYFTSQGLQSIYHLQNLTIEDLGALKIPEQDRMTIWRGLQDLK [Y51D] are within error of each other in abundance fitness: -0.083 ± 0.071 for the first, -0.072 ± 0.18 for the second.

YHADPSLVSFLTGLGCPNCIEYFTSQGLQSIYHLQNLTIEDLGALKIPEQERMTIWRGLQDLK [Y51E] and YHADPSLVSFLTGLGCPNCIEYFTSQGLQSIYHLQNLTIEDLGALKIPEQFRMTIWRGLQDLK [Y51F] are within error of each other in abundance fitness: -0.09 ± 0.049 for the first, -0.032 ± 0.14 for the second.

YHADPSLVSFLTGLGCPNCIEYFTSQGLQSIYHLQNLTIEDLGALKIPEQHRMTIWRGLQDLK [Y51H] and YHADPSLVSFLTGLGCPNCIEYFTSQGLQSIYHLQNLTIEDLGALKIPEQKRMTIWRGLQDLK [Y51K] are within error of each other in abundance fitness: -0.086 ± 0.097 for the first, 0.034 ± 0.1 for the second.

YHADPSLVSFLTGLGCPNCIEYFTSQGLQSIYHLQNLTIEDLGALKIPEQLRMTIWRGLQDLK [Y51L] and YHADPSLVSFLTGLGCPNCIEYFTSQGLQSIYHLQNLTIEDLGALKIPEQMRMTIWRGLQDLK [Y51M] are within error of each other in abundance fitness: -0.116 ± 0.058 for the first, -0.189 ± 0.048 for the second.

YHADPSLVSFLTGLGCPNCIEYFTSQGLQSIYHLQNLTIEDLGALKIPEQNRMTIWRGLQDLK [Y51N] and YHADPSLVSFLTGLGCPNCIEYFTSQGLQSIYHLQNLTIEDLGALKIPEQPRMTIWRGLQDLK [Y51P] are within error of each other in abundance fitness: -0.139 ± 0.11 for the first, -0.049 ± 0.094 for the second.

YHADPSLVSFLTGLGCPNCIEYFTSQGLQSIYHLQNLTIEDLGALKIPEQQRMTIWRGLQDLK [Y51Q] and YHADPSLVSFLTGLGCPNCIEYFTSQGLQSIYHLQNLTIEDLGALKIPEQRRMTIWRGLQDLK [Y51R] are within error of each other in abundance fitness: -0.124 ± 0.1 for the first, -0.137 ± 0.04 for the second.

YHADPSLVSFLTGLGCPNCIEYFTSQGLQSIYHLQNLTIEDLGALKIPEQSRMTIWRGLQDLK [Y51S] and YHADPSLVSFLTGLGCPNCIEYFTSQGLQSIYHLQNLTIEDLGALKIPEQVRMTIWRGLQDLK [Y51V] are within error of each other in abundance fitness: -0.126 ± 0.055 for the first, -0.06 ± 0.062 for the second.

YHADPSLVSFLTGLGCPNCIEYFTSQGLQSIYHLQNLTIEDLGALKIPEQYCMTIWRGLQDLK [R52C] and YHADPSLVSFLTGLGCPNCIEYFTSQGLQSIYHLQNLTIEDLGALKIPEQYDMTIWRGLQDLK [R52D] are within error of each other in abundance fitness: -0.131 ± 0.11 for the first, -0.425 ± 0.47 for the second.

YHADPSLVSFLTGLGCPNCIEYFTSQGLQSIYHLQNLTIEDLGALKIPEQYEMTIWRGLQDLK [R52E] and YHADPSLVSFLTGLGCPNCIEYFTSQGLQSIYHLQNLTIEDLGALKIPEQYFMTIWRGLQDLK [R52F] are within error of each other in abundance fitness: -0.075 ± 0.051 for the first, -0.53 ± 0.42 for the second.

First: YHADPSLVSFLTGLGCPNCIEYFTSQGLQSIYHLQNLTIEDLGALKIPEQYGMTIWRGLQDLK [R52G]
Second: YHADPSLVSFLTGLGCPNCIEYFTSQGLQSIYHLQNLTIEDLGALKIPEQYHMTIWRGLQDLK [R52H]
The abundance fitness of the first is lower: -0.114 ± 0.046 for the first, 0.054 ± 0.061 for the second.

First: YHADPSLVSFLTGLGCPNCIEYFTSQGLQSIYHLQNLTIEDLGALKIPEQYIMTIWRGLQDLK [R52I]
Second: YHADPSLVSFLTGLGCPNCIEYFTSQGLQSIYHLQNLTIEDLGALKIPEQYLMTIWRGLQDLK [R52L]
The abundance fitness of the first is higher: 0.2 ± 0.073 for the first, 0.004 ± 0.042 for the second.

First: YHADPSLVSFLTGLGCPNCIEYFTSQGLQSIYHLQNLTIEDLGALKIPEQYMMTIWRGLQDLK [R52M]
Second: YHADPSLVSFLTGLGCPNCIEYFTSQGLQSIYHLQNLTIEDLGALKIPEQYPMTIWRGLQDLK [R52P]
The abundance fitness of the first is higher: -0.146 ± 0.063 for the first, -0.755 ± 0.095 for the second.

Variant YHADPSLVSFLTGLGCPNCIEYFTSQGLQSIYHLQNLTIEDLGALKIPEQYQMTIWRGLQDLK [R52Q] has an abundance fitness of -0.019 ± 0.046.

From the Human Domainome abundance scans (Beltran et al. 2025)
